# Results reported in article PMC10516418.
# pKd: −log10 of the molar value.
# Molecular target: HMPV F v3B_Δ12 (human metapneumovirus)
# Experiment: BLI; Octet Red384; […] (500.0 nM to 7.8 nM), 300 s association and 300 s dissociation; 30°C, […]; global 1:1 fit
substance,measurement,value
MPE8 antigen-binding fragment (Fab),pKd,7.68
